Values quoted from earlier work as cited in paper PMC10027511, “Disordered proteins mitigate the temperature dependence of site-specific binding free energies” (The Journal of Biological Chemistry, 2023).

Key:
[1] = biological target: Sos site 4 peptide site 4 peptide (Drosophila melanogaster) (UniProt P26675); experiment: 19F NMR lineshape analysis, 45 °C
[2] = biological target: Sos site 4 peptide site 4 peptide (Drosophila melanogaster) (UniProt P26675); experiment: 19F NMR lineshape analysis, 35 °C
[3] = biological target: Sos site 4 peptide site 4 peptide (Drosophila melanogaster) (UniProt P26675); experiment: 19F NMR lineshape analysis, 25 °C
[4] = biological target: Sos site 4 peptide site 4 peptide (Drosophila melanogaster) (UniProt P26675); experiment: 19F NMR lineshape analysis, 5 °C
[5] = biological target: Sos site 4 peptide site 4 peptide (Drosophila melanogaster) (UniProt P26675); experiment: 19F NMR lineshape analysis, 15 °C

In the case of “Drk N-terminal SH3 domain N-terminal SH3 (from UniProt Q08012)”, the Kd [1] is given as 210 µM, the Kd [2] is given as 110 µM and the Kd [3] is given as 60 µM. For the same substance, the Kd [4] was 20 µM and the Kd [5] was 40 µM.
